Key:
[1] = tested on: O=C(O)c1ccccc1[N+](=O)[O-]; assay: purified protein, by the assay type; settings: other: cofactor NADH; enzyme 1 uM
O=[N+]([O-])c1ccc(CO)cc1 = assay: purified protein, by the assay type; settings: other: cofactor NADH; enzyme 1 uM

| Substance | Km [1] [mM] | Km (O=[N+]([O-])c1ccc(CO)cc1) [mM mM] | kcat (O=[N+]([O-])c1ccc(CO)cc1) [min-1 min-1] |
| --- | --- | --- | --- |
| Enterobacter cloacae nitroreductase (EntNFSB) variant EntNFSB-s1, S40A/T41I/F124A, SEQ ID NO: 38 (Enterobacter cloacae; F124A/S40A/T41I) | 4.05 |  |  |
| Enterobacter cloacae nitroreductase (EntNFSB), wild type, SEQ ID NO: 37 (Enterobacter cloacae) |  | 9.52 | 8.76 |

Source: US20210277441A1, “METHOD OF SELECTING A POLYPEPTIDE OF INTEREST” (IMPERIAL COLLEGE INNOVATIONS LIMITED, priority 2018, published 2021)
